The values that follow come from PMC2148051, “Crystal structures of Leptospira interrogans FAD-containing ferredoxin-NADP^+ reductase and its complex with NADP^+” (BMC Structural Biology, 2007).

In one series the target is T1, P. sativum FNR (Lathyrus oleraceus, UniProt P10933).
T1 construct: gene PETH; plastidic enzyme
T1 sequence (P10933 53-360): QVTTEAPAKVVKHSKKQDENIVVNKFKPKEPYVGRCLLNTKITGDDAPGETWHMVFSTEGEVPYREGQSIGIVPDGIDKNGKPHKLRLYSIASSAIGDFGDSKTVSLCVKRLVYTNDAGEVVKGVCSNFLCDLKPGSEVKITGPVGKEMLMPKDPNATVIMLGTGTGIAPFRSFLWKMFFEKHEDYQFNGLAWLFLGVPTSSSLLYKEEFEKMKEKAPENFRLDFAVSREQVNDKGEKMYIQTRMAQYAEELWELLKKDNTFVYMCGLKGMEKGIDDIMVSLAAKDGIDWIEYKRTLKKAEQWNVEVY
Description: difference absorption spectroscopy titration. In kind it is binding. Particulars: read-out: Kd (μM, NADP^+). From the text: difference absorption spectroscopy titration on P. sativum FNR

For series [1], the target named is T2, LepFNR (Leptospira interrogans, UniProt Q8EY89).
T2 construct: gene LA_4327; expressed in E. coli (pET32JO-LepFNR) as thioredoxin fusion, thioredoxin removed with thrombin; FAD holoenzyme; C-terminal residue Tyr314
Description: difference absorption spectroscopy titration. In kind it is binding. The text has this: difference absorption spectroscopy titration on LepFNR

Series [2] concerns NC(=O)C1=CN([C@@H]2O[C@H](COP(=O)(O)OP(=O)(O)OC[C@H]3O[C@@H](n4cnc5c(N)ncnc54)[C@H](OP(=O)(O)O)[C@@H]3O)[C@@H](O)[C@H]2O)C=CC1. The experiment in a line: purified protein. Particulars: 1 mM potassium ferricyanide, NADPH regenerated with glucose-6-phosphate dehydrogenase, 50 mM Tris-HCl, pH 8, 30°C.
Series [3] deals with T2, LepFNR. The experiment in a line: X-ray crystal structure, […] Å. The series is classed as binding. As to conditions: noncovalently bound prosthetic group, extended conformation.
Substrate in the series “purified protein”: NC(=O)C1=CN([C@@H]2O[C@H](COP(=O)(O)OP(=O)(O)OC[C@H]3O[C@@H](n4cnc5c(N)ncnc54)[C@H](OP(=O)(O)O)[C@@H]3O)[C@@H](O)[C@H]2O)C=CC1
The experiment in a line: purified protein. The series is classed as biochemical, Lathyrus oleraceus. As to conditions: 1 mM potassium ferricyanide, NADPH regenerated with glucose-6-phosphate dehydrogenase, 50 mM Tris-HCl, pH 8, 30°C.

T2 sequence (Q8EY89 entry or part of it): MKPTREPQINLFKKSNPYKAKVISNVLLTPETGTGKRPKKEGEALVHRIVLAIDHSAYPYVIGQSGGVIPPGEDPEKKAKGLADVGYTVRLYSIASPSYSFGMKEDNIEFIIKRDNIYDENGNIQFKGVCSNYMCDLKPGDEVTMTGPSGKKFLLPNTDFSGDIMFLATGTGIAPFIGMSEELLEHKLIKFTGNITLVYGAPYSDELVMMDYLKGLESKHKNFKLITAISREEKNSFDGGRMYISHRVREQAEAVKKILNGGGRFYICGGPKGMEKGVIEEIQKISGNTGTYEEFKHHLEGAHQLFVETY

The term Kd denotes the constant that tells how readily two partners part at equilibrium. For `NC(=O)c1ccc[n+]([C@@H]2O[C@H](COP(=O)(O)OP(=O)(O)OC[C@H]3O[C@@H](n4cnc5c(N)ncnc54)[C@H](OP(=O)(O)O)[C@@H]3O)[C@@H](O)[C@H]2O)c1` [NADP^+], the Kd stood at 32 ± 2 µM at P. sativum FNR and 43 ± 3 µM at LepFNR [1].
Broadly, the Km is the substrate concentration at which the rate is half of its maximum. What is called kcat is the maximal rate divided by the concentration of active sites. By kcat/Km is commonly meant the turnover number divided by the Michaelis constant. With “LepFNR (Leptospira interrogans serovar Lai str. 56601)”, in series [2], the Km was 19.5 ± 1.7 µM, the kcat was found to be 258 ± 13 s⁻¹ and the kcat/Km amounted to 1.32e+07 M⁻¹ s⁻¹.
For `Cc1cc2nc3c(=O)[nH]c(=O)nc-3n(C[C@H](O)[C@H](O)[C@H](O)COP(=O)(O)OP(=O)(O)OC[C@H]3O[C@@H](n4cnc5c(N)ncnc54)[C@H](O)[C@@H]3O)c2cc1C` [FAD], the “X-ray crystal structure, 2.43 Å” value on LepFNR [3] is reported as “LepFNR accommodates the FAD molecule in an extended conformation between the two enzyme domains”.

B1: P. sativum FNR (Lathyrus oleraceus) (protein)
chain: T1 sequence (P10933 53-360)
notes: plastidic enzyme
Turning to B1, in the series “purified protein”, the Km turned out to be 19.0 ± 1.6 µM, the kcat amounted to 324 ± 16 s⁻¹ and the kcat/Km was determined as 1.71e+07 M⁻¹ s⁻¹.
